# Experimental data published in patent US20160264649A1.
# Experiments:
# Assay in all cases: cell-based or functional assay
# [1] = target: HIV-1 Env of isolate MGRM-AE-002 (subtype AE) (HIV-1)
# [2] = target: HIV-1 Env of isolate MGRM-D-018 (subtype D) (HIV-1)
# [3] = target: HIV-1 Env of isolate CMU02 (subtype AE) (HIV-1)
# [4] = target: HIV-1 Env of isolate 93WR029 (subtype A) (HIV-1)
# [5] = target: HIV-1 Env of isolate MGRM-F1-012 (subtype F) (HIV-1)
# [6] = target: HIV-1 Env of isolate 92UG114 (subtype D) (HIV-1)
# [7] = target: HIV-1 Env of isolate 94UG103 (subtype A) (HIV-1)
# [8] = target: HIV-1 Env of isolate MGRM-D-002 (subtype D) (HIV-1)
# [9] = target: HIV-1 Env of isolate MGRM-F1-014 (subtype F) (HIV-1)
# [10] = target: HIV-1 Env of isolate MGRM-F1-006 (subtype F) (HIV-1)
# [11] = target: HIV-1 Env of isolate MGRM-AE-004 (subtype AE) (HIV-1)
# [12] = target: HIV-1 Env of isolate VLGCA1 (subtype A) (HIV-1)
# [13] = target: HIV-1 Env of isolate MGRM-D-026 (subtype D) (HIV-1)
# [14] = target: HIV-1 Env of isolate MGRM-AE-003 (subtype AE) (HIV-1)
# [15] = target: HIV-1 Env of isolate MGRM-D-016 (subtype D) (HIV-1)
# [16] = target: HIV-1 Env of isolate MGRM-AE-008 (subtype AE) (HIV-1)
# [17] = target: HIV-1 Env of isolate MGRM-AE-001 (subtype AE) (HIV-1)
# [18] = target: HIV-1 Env of isolate 92WR020 (subtype A) (HIV-1)
# [19] = target: HIV-1 Env of isolate MGRM-F1-015 (subtype F) (HIV-1)
# [20] = target: HIV-1 Env of isolate MGRM-F1-020 (subtype F) (HIV-1)
# [21] = target: HIV-1 Env of isolate MGRM-D-014 (subtype D) (HIV-1)
# [22] = target: HIV-1 Env of isolate MGRM-D-024 (subtype D) (HIV-1)
# [23] = target: HIV-1 Env of isolate MGRM-F1-010 (subtype F) (HIV-1)
# [24] = target: HIV-1 Env of isolate MGRM-F1-004 (subtype F) (HIV-1)
# [25] = target: HIV-1 Env of isolate MGRM-D-020 (subtype D) (HIV-1)
# [26] = target: HIV-1 Env of isolate 92WR021 (subtype A) (HIV-1)
# [27] = target: HIV-1 Env of isolate MGRM-F1-008 (subtype F) (HIV-1)
# [28] = target: HIV-1 Env of isolate MGRM-F1-018 (subtype F) (HIV-1)
# [29] = target: HIV-1 Env of isolate MGRM-D-021 (subtype D) (HIV-1)
# [30] = target: HIV-1 Env of isolate 92UG031 (subtype A) (HIV-1)
# [31] = target: HIV-1 Env of isolate MGRM-F1-017 (subtype F) (HIV-1)
# [32] = target: HIV-1 Env of isolate MGRM-F1-021 (subtype F) (HIV-1)
# [33] = target: HIV-1 Env of isolate 92WR026 (subtype A) (HIV-1)
# [34] = target: HIV-1 Env of isolate MGRM-F1-016 (subtype F) (HIV-1)
# [35] = target: HIV-1 Env of isolate MGRM-F1-013 (subtype F) (HIV-1)
# [36] = target: HIV-1 Env of isolate MGRM-D-005 (subtype D) (HIV-1)
# [37] = target: HIV-1 Env of isolate MGRM-D-022 (subtype D) (HIV-1)
# [38] = target: HIV-1 Env of isolate 92WR024 (subtype A) (HIV-1)
# [39] = target: HIV-1 Env of isolate MGRM-F1-023 (subtype F) (HIV-1)
# [40] = target: HIV-1 Env of isolate MGRM-D-003 (subtype D) (HIV-1)
# [41] = target: HIV-1 Env of isolate MGRM-AE-006 (subtype AE) (HIV-1)
# [42] = target: HIV-1 Env of isolate 92UG037 (subtype A) (HIV-1)
# [43] = target: HIV-1 Env of isolate MGRM-D-008 (subtype D) (HIV-1)
# [44] = target: HIV-1 Env of isolate MGRM-F1-022 (subtype F) (HIV-1)
# [45] = target: HIV-1 Env of isolate MGRM-D-001 (subtype D) (HIV-1)
# [46] = target: HIV-1 Env of isolate MGRM-D-028 (subtype D) (HIV-1)
# [47] = target: HIV-1 Env of isolate MGRM-D-019 (subtype D) (HIV-1)
# [48] = target: HIV-1 Env of isolate MGRM-AE-007 (subtype AE) (HIV-1)
# [49] = target: HIV-1 Env of isolate MGRM-AE-005 (subtype AE) (HIV-1)
# [50] = target: HIV-1 Env of isolate MGRM-D-012 (subtype D) (HIV-1)
# [51] = target: HIV-1 Env of isolate MGRM-D-011 (subtype D) (HIV-1)
# [52] = target: HIV-1 Env of isolate 92TH021 (subtype AE) (HIV-1)
# [53] = target: HIV-1 Env of isolate 92WR009 (subtype A) (HIV-1)
# [54] = target: HIV-1 Env of isolate MGRM-D-004 (subtype D) (HIV-1)
# [55] = target: HIV-1 Env of isolate MGRM-D-013 (subtype D) (HIV-1)
# [56] = target: HIV-1 Env of isolate 93UG077 (subtype A) (HIV-1)
# [57] = target: HIV-1 Env of isolate MGRM-D-029 (subtype D) (HIV-1)
# [58] = target: HIV-1 Env of isolate 94 KE 105 (subtype AC) (HIV-1)
# PGT-143 (4980_N08) (antibody), sequence (VH): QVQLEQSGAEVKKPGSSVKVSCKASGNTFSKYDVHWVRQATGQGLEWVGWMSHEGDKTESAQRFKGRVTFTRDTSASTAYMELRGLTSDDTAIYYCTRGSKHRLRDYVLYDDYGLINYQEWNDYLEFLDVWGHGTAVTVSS
# PGT-143 (4980_N08) (antibody), sequence (VL): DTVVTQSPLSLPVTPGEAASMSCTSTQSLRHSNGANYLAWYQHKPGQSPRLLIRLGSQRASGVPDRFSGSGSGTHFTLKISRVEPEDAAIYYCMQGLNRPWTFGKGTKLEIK
# PGT-144 (4970_K22) (antibody), sequence (VH): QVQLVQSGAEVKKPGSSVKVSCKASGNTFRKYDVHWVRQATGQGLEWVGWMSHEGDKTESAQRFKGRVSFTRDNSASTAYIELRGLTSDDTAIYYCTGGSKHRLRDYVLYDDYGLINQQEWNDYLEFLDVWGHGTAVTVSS
# PGT-144 (4970_K22) (antibody), sequence (VL): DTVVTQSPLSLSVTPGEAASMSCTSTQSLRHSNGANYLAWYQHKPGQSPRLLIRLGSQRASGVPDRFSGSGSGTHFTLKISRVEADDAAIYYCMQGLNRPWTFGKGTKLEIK
substance,measurement,setting,value
PGT-143 (4980_N08) (antibody),IC50 (pseudovirus neutralization),[1],> 50 µg/mL
same,IC50 (pseudovirus neutralization),[2],> 50 µg/mL
same,IC50 (pseudovirus neutralization),[3],> 50 µg/mL
same,IC50 (pseudovirus neutralization),[4],0.053 µg/mL
same,IC50 (pseudovirus neutralization),[5],> 50 µg/mL
same,IC50 (pseudovirus neutralization),[6],> 50 µg/mL
same,IC50 (pseudovirus neutralization),[7],> 50 µg/mL
same,IC50 (pseudovirus neutralization),[8],> 50 µg/mL
same,IC50 (pseudovirus neutralization),[9],0.001 µg/mL
same,IC50 (pseudovirus neutralization),[10],12.3 µg/mL
same,IC50 (pseudovirus neutralization),[11],0.002 µg/mL
same,IC50 (pseudovirus neutralization),[12],17.4 µg/mL
same,IC50 (pseudovirus neutralization),[13],44.6 µg/mL
same,IC50 (pseudovirus neutralization),[14],> 50 µg/mL
same,IC50 (pseudovirus neutralization),[15],> 50 µg/mL
same,IC50 (pseudovirus neutralization),[16],0.135 µg/mL
same,IC50 (pseudovirus neutralization),[17],> 50 µg/mL
same,IC50 (pseudovirus neutralization),[18],> 50 µg/mL
same,IC50 (pseudovirus neutralization),[19],> 50 µg/mL
same,IC50 (pseudovirus neutralization),[20],0.98 µg/mL
same,IC50 (pseudovirus neutralization),[21],0.009 µg/mL
same,IC50 (pseudovirus neutralization),[22],> 50 µg/mL
same,IC50 (pseudovirus neutralization),[23],> 50 µg/mL
same,IC50 (pseudovirus neutralization),[24],0.036 µg/mL
same,IC50 (pseudovirus neutralization),[25],> 50 µg/mL
same,IC50 (pseudovirus neutralization),[26],> 50 µg/mL
same,IC50 (pseudovirus neutralization),[27],0.189 µg/mL
same,IC50 (pseudovirus neutralization),[28],0.701 µg/mL
same,IC50 (pseudovirus neutralization),[29],> 50 µg/mL
same,IC50 (pseudovirus neutralization),[30],0.095 µg/mL
same,IC50 (pseudovirus neutralization),[31],26.3 µg/mL
same,IC50 (pseudovirus neutralization),[32],> 50 µg/mL
same,IC50 (pseudovirus neutralization),[33],5.36 µg/mL
same,IC50 (pseudovirus neutralization),[34],> 50 µg/mL
same,IC50 (pseudovirus neutralization),[35],0.013 µg/mL
same,IC50 (pseudovirus neutralization),[36],1.41 µg/mL
same,IC50 (pseudovirus neutralization),[37],> 50 µg/mL
same,IC50 (pseudovirus neutralization),[38],0.122 µg/mL
same,IC50 (pseudovirus neutralization),[39],0.972 µg/mL
same,IC50 (pseudovirus neutralization),[40],> 50 µg/mL
same,IC50 (pseudovirus neutralization),[41],> 50 µg/mL
same,IC50 (pseudovirus neutralization),[42],0.854 µg/mL
same,IC50 (pseudovirus neutralization),[43],0.153 µg/mL
same,IC50 (pseudovirus neutralization),[44],0.082 µg/mL
same,IC50 (pseudovirus neutralization),[45],> 50 µg/mL
same,IC50 (pseudovirus neutralization),[46],> 50 µg/mL
same,IC50 (pseudovirus neutralization),[47],0.277 µg/mL
same,IC50 (pseudovirus neutralization),[48],13.6 µg/mL
same,IC50 (pseudovirus neutralization),[49],> 50 µg/mL
same,IC50 (pseudovirus neutralization),[50],> 50 µg/mL
same,IC50 (pseudovirus neutralization),[51],> 50 µg/mL
same,IC50 (pseudovirus neutralization),[52],0.003 µg/mL
same,IC50 (pseudovirus neutralization),[53],0.01 µg/mL
same,IC50 (pseudovirus neutralization),[54],> 50 µg/mL
same,IC50 (pseudovirus neutralization),[55],0.386 µg/mL
same,IC50 (pseudovirus neutralization),[56],> 50 µg/mL
same,IC50 (pseudovirus neutralization),[57],0.2 µg/mL
same,IC50 (pseudovirus neutralization),[58],0.368 µg/mL
PGT-144 (4970_K22) (antibody),IC50 (pseudovirus neutralization),[1],> 50 µg/mL
same,IC50 (pseudovirus neutralization),[2],> 50 µg/mL
same,IC50 (pseudovirus neutralization),[3],> 50 µg/mL
same,IC50 (pseudovirus neutralization),[4],4.39 µg/mL
same,IC50 (pseudovirus neutralization),[5],> 50 µg/mL
same,IC50 (pseudovirus neutralization),[6],> 50 µg/mL
same,IC50 (pseudovirus neutralization),[7],> 50 µg/mL
same,IC50 (pseudovirus neutralization),[8],> 50 µg/mL
same,IC50 (pseudovirus neutralization),[9],0.014 µg/mL
same,IC50 (pseudovirus neutralization),[10],20.6 µg/mL
same,IC50 (pseudovirus neutralization),[11],0.104 µg/mL
same,IC50 (pseudovirus neutralization),[12],> 50 µg/mL
same,IC50 (pseudovirus neutralization),[13],> 50 µg/mL
same,IC50 (pseudovirus neutralization),[14],> 50 µg/mL
same,IC50 (pseudovirus neutralization),[15],> 50 µg/mL
same,IC50 (pseudovirus neutralization),[16],3.55 µg/mL
same,IC50 (pseudovirus neutralization),[17],> 50 µg/mL
same,IC50 (pseudovirus neutralization),[18],> 50 µg/mL
same,IC50 (pseudovirus neutralization),[19],> 50 µg/mL
same,IC50 (pseudovirus neutralization),[20],8.93 µg/mL
same,IC50 (pseudovirus neutralization),[21],0.113 µg/mL
same,IC50 (pseudovirus neutralization),[22],> 50 µg/mL
same,IC50 (pseudovirus neutralization),[23],> 50 µg/mL
same,IC50 (pseudovirus neutralization),[24],0.105 µg/mL
same,IC50 (pseudovirus neutralization),[25],> 50 µg/mL
same,IC50 (pseudovirus neutralization),[26],> 50 µg/mL
same,IC50 (pseudovirus neutralization),[27],0.507 µg/mL
same,IC50 (pseudovirus neutralization),[28],> 50 µg/mL
same,IC50 (pseudovirus neutralization),[29],> 50 µg/mL
same,IC50 (pseudovirus neutralization),[30],2.17 µg/mL
same,IC50 (pseudovirus neutralization),[31],> 50 µg/mL
same,IC50 (pseudovirus neutralization),[32],> 50 µg/mL
same,IC50 (pseudovirus neutralization),[33],32.7 µg/mL
same,IC50 (pseudovirus neutralization),[34],> 50 µg/mL
same,IC50 (pseudovirus neutralization),[35],0.509 µg/mL
same,IC50 (pseudovirus neutralization),[36],14.8 µg/mL
same,IC50 (pseudovirus neutralization),[37],> 50 µg/mL
same,IC50 (pseudovirus neutralization),[38],16.3 µg/mL
same,IC50 (pseudovirus neutralization),[39],1.16 µg/mL
same,IC50 (pseudovirus neutralization),[40],> 50 µg/mL
same,IC50 (pseudovirus neutralization),[41],> 50 µg/mL
same,IC50 (pseudovirus neutralization),[42],8.24 µg/mL
same,IC50 (pseudovirus neutralization),[43],9.85 µg/mL
same,IC50 (pseudovirus neutralization),[44],0.382 µg/mL
same,IC50 (pseudovirus neutralization),[45],> 50 µg/mL
same,IC50 (pseudovirus neutralization),[46],> 50 µg/mL
same,IC50 (pseudovirus neutralization),[47],> 50 µg/mL
same,IC50 (pseudovirus neutralization),[48],> 50 µg/mL
same,IC50 (pseudovirus neutralization),[49],> 50 µg/mL
same,IC50 (pseudovirus neutralization),[50],> 50 µg/mL
same,IC50 (pseudovirus neutralization),[51],> 50 µg/mL
same,IC50 (pseudovirus neutralization),[52],0.052 µg/mL
same,IC50 (pseudovirus neutralization),[53],0.893 µg/mL
same,IC50 (pseudovirus neutralization),[54],> 50 µg/mL
same,IC50 (pseudovirus neutralization),[55],> 50 µg/mL
same,IC50 (pseudovirus neutralization),[56],> 50 µg/mL
same,IC50 (pseudovirus neutralization),[57],0.459 µg/mL
same,IC50 (pseudovirus neutralization),[58],0.29 µg/mL
